Results as given in patent US7119077B1, “Multimeric forms of members of the steroid/thyroid superfamily of receptors with the ultraspiracle receptor” (The Salk Institute for Biological Studies, priority 1990, dated 2006).

B1: SPP1-VDRE (DR3, printed SSP1) (dsDNA)
DNA 1: GGTTCACGAGGTTCA
DNA 2: TGAACCTCGTGAACC
B2: AOX-PPARE (DR1) (dsDNA)
DNA 1: AGGACAAAGGTCA
DNA 2: TGACCTTTGTCCT

Tests used:
[1] = target: T1, usp/VDR heterodimer (Drosophila melanogaster / Homo sapiens, UniProt P20153;P11473 P20153:1-508,P11473:1-427); assay: EMSA; usp dependent; usp antibody supershift; conditions: label: 32P
T1 sequence 1: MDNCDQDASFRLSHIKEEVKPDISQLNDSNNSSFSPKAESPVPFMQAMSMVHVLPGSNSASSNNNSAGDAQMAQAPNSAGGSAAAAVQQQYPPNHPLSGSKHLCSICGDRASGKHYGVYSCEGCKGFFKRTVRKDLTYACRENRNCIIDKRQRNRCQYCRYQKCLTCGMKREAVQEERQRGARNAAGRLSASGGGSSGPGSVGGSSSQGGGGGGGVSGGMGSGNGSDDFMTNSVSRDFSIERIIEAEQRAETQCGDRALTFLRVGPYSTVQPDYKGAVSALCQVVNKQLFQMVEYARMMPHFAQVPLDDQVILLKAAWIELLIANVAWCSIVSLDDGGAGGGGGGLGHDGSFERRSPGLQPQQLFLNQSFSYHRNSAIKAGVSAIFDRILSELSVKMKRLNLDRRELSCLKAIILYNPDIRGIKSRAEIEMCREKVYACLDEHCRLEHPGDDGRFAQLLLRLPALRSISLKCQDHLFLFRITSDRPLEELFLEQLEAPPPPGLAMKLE
T1 sequence 2: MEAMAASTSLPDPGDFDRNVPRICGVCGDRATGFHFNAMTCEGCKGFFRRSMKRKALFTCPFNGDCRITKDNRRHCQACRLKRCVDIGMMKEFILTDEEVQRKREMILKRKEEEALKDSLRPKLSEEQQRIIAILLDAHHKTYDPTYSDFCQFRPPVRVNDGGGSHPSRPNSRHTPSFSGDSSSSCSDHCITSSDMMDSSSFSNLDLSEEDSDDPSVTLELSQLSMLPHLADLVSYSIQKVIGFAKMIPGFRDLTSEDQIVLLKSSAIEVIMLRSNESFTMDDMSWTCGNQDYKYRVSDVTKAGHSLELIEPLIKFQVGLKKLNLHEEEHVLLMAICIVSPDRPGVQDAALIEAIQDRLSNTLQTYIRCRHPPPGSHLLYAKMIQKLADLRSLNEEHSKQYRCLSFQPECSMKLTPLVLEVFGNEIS
Protocol: (§1) For gel mobility shift assay, proteins were incubated with binding buffer, which contained 100 mM KCl, 7.5% glycerol, 20 mM HEPES pH 7.5, 2 mM DTT and 0.1% NP-40, on ice for 20 minutes in the presence of 2 μg of nonspecific competitor poly dI-dC and other oligo competitors. Then approximately 1 ng of ^32P-dCTP probe, which was labelled to specific activity about 1-5×10^8 cpm/μg by fill-in reaction with Klenow fragments, was added to the reaction and incubated at room temperature for 20 minutes. Antiserum or preimmune serum was added 10 minutes after the probe was added. The reaction was then loaded into 5% non-denaturing polyacrylamide gel in 0.5×TBE running buffer [1×TBE comprises 0.089 M Tris borate, 0.089 M boric acid and 0.002 M EDTA]. After electrophoresis, the gel was dried for autoradiography.
(§2) Using in vitro translated usp protein, interaction of usp with three mammalian nuclear receptors (TRβ, VDR and PPAR) was tested in gel mobility shift assays with the appropriate response element for each of the three receptors as the probes.

[2] = target: T2, usp/PPAR heterodimer (Drosophila melanogaster / Rattus …, UniProt P20153;P37230 P20153:1-508,P37230:1-468); assay: EMSA; high affinity; usp antibody supershift; conditions: label: 32P
T2 sequence 1: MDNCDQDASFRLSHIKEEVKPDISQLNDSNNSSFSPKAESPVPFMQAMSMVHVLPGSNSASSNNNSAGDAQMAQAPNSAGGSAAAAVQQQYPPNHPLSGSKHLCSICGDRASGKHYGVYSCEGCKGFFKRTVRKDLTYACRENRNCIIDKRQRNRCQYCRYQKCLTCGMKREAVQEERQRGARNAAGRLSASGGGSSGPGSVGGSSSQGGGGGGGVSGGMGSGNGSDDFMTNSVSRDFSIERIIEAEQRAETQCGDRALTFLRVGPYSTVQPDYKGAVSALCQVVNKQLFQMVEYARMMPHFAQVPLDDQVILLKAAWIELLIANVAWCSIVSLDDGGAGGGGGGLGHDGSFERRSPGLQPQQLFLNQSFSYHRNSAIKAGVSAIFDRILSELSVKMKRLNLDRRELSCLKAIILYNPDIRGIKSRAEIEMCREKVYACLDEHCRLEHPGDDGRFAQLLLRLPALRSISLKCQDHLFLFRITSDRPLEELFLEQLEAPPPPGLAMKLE
T2 sequence 2: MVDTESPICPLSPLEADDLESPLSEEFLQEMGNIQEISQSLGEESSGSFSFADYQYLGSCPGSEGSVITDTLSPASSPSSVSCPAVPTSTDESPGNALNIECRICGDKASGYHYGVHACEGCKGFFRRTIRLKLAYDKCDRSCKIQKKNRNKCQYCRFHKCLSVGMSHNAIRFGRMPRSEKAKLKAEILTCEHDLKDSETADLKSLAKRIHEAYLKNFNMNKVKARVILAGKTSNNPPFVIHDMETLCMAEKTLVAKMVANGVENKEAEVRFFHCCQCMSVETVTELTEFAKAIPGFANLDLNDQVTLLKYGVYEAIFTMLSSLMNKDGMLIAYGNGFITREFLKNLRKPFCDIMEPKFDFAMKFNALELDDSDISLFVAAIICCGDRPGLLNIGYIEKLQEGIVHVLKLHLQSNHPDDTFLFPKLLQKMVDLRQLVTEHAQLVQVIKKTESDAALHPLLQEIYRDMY
Protocol: as §1, §2

Binder | binding result [1] | binding result [2]
B1 | binds | –
B2 | – | binds
